How the values were obtained:
Type in all cases: biochemical
[1] = biological target: T1, Aspergillus clavatus NRRL 1 PepN 2 (aminopeptidase type 2) TRI035, SEQ ID NO: 5 (mature SEQ ID NO: 22) (Aspergillus clavatus, UniProt A1CCU6); assay: Activity on Glu-pNA and Gln-pNA substrates; details: 20 mM CPB-Buffer pH 9.0, 45° C., 405 nm
T1 construct: MEROPS M28.008
Method: (§1) H-Glu-Nitroanilid (pNA) and H-Gln-Nitroanilid (pNA) were used as substrates and the release of p-Nitroanilid (pNA) was measured by absorbance at 405 nm. As buffer 20 mM CPB-Buffer (20 mM Citric acid, 20 mM Na-phosphate, 20 mM Boric acid) pH 9.0 was used. 10 mg H-Glu-pNA and H-Gln-pNA (from BACHEM or Schafer N; Copenhagen, Denmark) were dissolved in 1 ml of DMSO (Dimethyl Sulphoxide from SIGMA; cat # D2650).
(§2) For running the assay 80 μL buffer, 10 μL H-Glu-pNA or H-Gln-pNA substrate and 10 uL appropriately diluted PepN 2 was incubated in Costar assay plate 9017 (Corning Inc.) at 45° C. and measured at 405 nm every 30 sec for 30 min in a VERSAMAX® microplate reader (Molecular Devices) running with SoftMaxPro 5.4.1 software. Activity was determined as the maximal slope of the linear part of the curve determined over 10 time points.

[2] = biological target: T2, Neosartorya fischeri NRRL 181 PepN 2 (aminopeptidase type 2) TRI031, SEQ ID NO: 1 (mature SEQ ID NO: 18) (Aspergillus fischeri, UniProt A1DJ89); assay: Activity on Glu-pNA and Gln-pNA substrates; details: 20 mM CPB-Buffer pH 9.0, 45° C., 405 nm
T2 construct: MEROPS M28.008
Method: as §1, §2

[3] = biological target: T3, PepN 1 L. helveticus (Lactobacillus helveticus ATCC 12046), purified (Lactobacillus helveticus, UniProt Q10730); assay: Activity on Glu-pNA and Gln-pNA substrates; details: 20 mM CPB-Buffer pH 9.0, 45° C., 405 nm
T3 construct: made in house
T3 sequence (Q10730 1-844): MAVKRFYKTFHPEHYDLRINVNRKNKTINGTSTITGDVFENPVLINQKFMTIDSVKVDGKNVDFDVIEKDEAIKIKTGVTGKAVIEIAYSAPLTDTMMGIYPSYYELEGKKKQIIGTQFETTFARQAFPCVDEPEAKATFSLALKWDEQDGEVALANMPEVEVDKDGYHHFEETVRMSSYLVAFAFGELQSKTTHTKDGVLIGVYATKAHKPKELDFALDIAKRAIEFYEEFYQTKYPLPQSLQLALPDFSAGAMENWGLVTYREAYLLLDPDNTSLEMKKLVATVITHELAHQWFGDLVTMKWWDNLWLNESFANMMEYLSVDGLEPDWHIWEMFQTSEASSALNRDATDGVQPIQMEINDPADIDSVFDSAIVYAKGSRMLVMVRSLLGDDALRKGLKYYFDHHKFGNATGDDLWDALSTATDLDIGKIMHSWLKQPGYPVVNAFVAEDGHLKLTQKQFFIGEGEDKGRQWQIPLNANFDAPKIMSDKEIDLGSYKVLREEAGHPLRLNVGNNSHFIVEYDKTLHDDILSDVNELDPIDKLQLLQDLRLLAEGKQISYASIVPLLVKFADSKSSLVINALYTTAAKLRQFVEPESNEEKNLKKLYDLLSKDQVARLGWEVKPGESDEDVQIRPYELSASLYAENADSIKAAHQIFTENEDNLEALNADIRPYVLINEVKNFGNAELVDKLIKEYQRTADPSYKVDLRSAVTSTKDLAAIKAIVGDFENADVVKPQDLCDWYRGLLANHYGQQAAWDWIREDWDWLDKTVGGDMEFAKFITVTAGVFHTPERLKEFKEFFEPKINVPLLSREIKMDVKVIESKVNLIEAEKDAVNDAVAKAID

[4] = system: PepN 1 A. sojae (COROLASE LAP), non-purified; assay: Activity on Glu-pNA and Gln-pNA substrates; details: 20 mM CPB-Buffer pH 9.0, 45° C., 405 nm
[5] = system: whey protein isolate (WPI); assay: Degree of hydrolysis of WPI with endopeptidases plus PepN; details: 50° C., 18 hr
Method: Enzyme activities of PepN 1 Lactobacillus helveticus ATCC® 12046, PepN 1 Aspergillus oryzae and from PepN 2 from Aspergillus clavatus (TRI035) were determined according to Stressler, Eisele et al. (2013, infra). PepN 1 from L. helveticus was expressed and purified as described by Stressler, Eisele et al. (2013, infra).
The PepN 1 and 2 aminopeptidases were standardized to the activity range of 2.5-200 nkat*mL^−1. For protein hydrolyses, 1% (w/wWPI) FOODPRO® Alkaline Protease (DuPont, Brabrand, Denmark) and 1% (w/wWPI) FOODPRO® PNL (DuPont, Brabrand, Denmark) were added to the whey protein isolate suspension (WPI; LACPRODAN® 9224, Arla Ingredients, Viby, Denmark) with an initial pH of 7.0. Following the endopeptidases addition, the WPI was mixed and 200 μL were transferred to each well of a 96-well microtiter plate. The hydrolysis was conducted at 50° C. without pH control and terminated after 18 hr by addition of 20 μL of 2 M TCA. Prior to the determination of the DH (Nielsen, Petersen et al., 2001, infra), all samples were filtered 0.22 μm.

[6] = system: peptide TPAAAR (peptide library XPAAAR); assay: Hydrolysis of peptide with proline in position 2, LC-MS; details: within 12 hr; peptide library 1 mg/mL, aminopeptidase 1 ug/mL, 55° C.; FIG. 10
Method: The peptide library XPAAAR (1 mg/mL) (SEQ ID NO:133) was incubated with 1 ug/mL of the aminopeptidase in 3×20 mM CPB-Buffer (20 mM Citric acid, 20 mM Phosphate, 20 mM Boric acid) at 55° C. 50 μL aliquots were stopped with 50 ul 5% TFA at the indicated time points and subjected to LC-MS analysis.
Capillary LC-MS/MS analyses were performed using an Agilent 1100 LC system (Agilent Technologies) interfaced to a LTQ Orbitrap Classic hybrid mass spectrometer (Thermo Scientific, Bremen, Germany). Samples were loaded onto a 15 cm Phenomenex Jupiter 4μ Proteo 90A, C4 analytical column. Separation was performed at a flow rate of 16 μL/min using a 10 min gradient of 0-40% Solvent B H2O/CH3CN/HCOOH (50/950/0.65 v/v/v) into the IONMAX® ion source (Thermo Scientific, San Jose). […] The peptide masses were measured by the Orbitrap (MS scans were obtained with a resolution of 60 000 at m/z 400), and up to 2 of the most intense peptide m/z were selected and subjected to fragmentation using CID in the linear ion trap (LTQ). […]
Label free quantification: The RAW files were accessed with the program Skyline 2.6.0.7176 (MacLean, B., et al., supra) which uses the MS1 intensities to build chromatograms (Schilling, B., et al., supra). […] Peptide sequences of the substrate as well as cleavage products were typed into Skyline and intensities were calculated in each sample. […]

T1 sequence (A1CCU6 entry or part of it): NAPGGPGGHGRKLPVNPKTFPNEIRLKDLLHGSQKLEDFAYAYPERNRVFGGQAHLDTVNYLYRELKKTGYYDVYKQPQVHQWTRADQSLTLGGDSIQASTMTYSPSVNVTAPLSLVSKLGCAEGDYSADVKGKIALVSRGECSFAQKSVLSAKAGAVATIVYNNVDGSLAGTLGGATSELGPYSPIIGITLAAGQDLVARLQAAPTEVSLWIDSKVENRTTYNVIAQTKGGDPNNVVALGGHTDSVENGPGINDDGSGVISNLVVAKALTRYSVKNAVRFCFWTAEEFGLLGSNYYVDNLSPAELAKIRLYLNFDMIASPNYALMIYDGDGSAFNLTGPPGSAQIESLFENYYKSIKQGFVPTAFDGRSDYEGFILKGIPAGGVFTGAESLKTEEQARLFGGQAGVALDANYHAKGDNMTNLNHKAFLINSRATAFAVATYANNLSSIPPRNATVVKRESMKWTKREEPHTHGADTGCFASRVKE
T2 sequence (A1DJ89 entry or part of it): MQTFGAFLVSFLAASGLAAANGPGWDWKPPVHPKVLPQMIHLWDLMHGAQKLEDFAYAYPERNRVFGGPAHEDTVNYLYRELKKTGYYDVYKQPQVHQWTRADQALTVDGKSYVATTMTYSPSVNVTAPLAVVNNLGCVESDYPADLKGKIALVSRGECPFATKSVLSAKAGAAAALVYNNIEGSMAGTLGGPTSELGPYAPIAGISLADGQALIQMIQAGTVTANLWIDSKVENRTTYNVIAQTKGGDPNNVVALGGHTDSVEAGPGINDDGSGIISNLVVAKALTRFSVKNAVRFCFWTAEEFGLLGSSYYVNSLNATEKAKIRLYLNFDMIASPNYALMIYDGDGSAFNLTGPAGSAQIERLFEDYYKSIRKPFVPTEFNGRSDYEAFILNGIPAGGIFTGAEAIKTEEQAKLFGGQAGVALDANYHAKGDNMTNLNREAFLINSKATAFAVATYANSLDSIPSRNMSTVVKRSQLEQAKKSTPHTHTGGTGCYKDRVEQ

Molecule: NC(=O)CC[C@H](N)C(=O)Nc1ccc([N+](=O)[O-])cc1 [Gln-pNA, H-Gln-Nitroanilid]
- Vmax (Gln-pNA) [1]: 98.7 mU/min
- Vmax (Gln-pNA) [2]: 75.9 mU/min
- Vmax (Gln-pNA) [3]: 0 mU/min
- Vmax (Gln-pNA) [4]: 0 mU/min

Molecule: N[C@@H](CCC(=O)O)C(=O)Nc1ccc([N+](=O)[O-])cc1 [Glu-pNA, H-Glu-Nitroanilid]
- Vmax (Glu-pNA) [1]: 20.1 mU/min
- Vmax (Glu-pNA) [2]: 50.8 mU/min
- Vmax (Glu-pNA) [3]: 0.02 mU/min
- Vmax (Glu-pNA) [4]: 0 mU/min

B1: PepN 1: L. helveticus: PepN 1 from Lactobacillus helveticus ATCC 12046, expressed and purified as described by Stressler, Eisele et al. (2013) (protein, UniProt Q10730 1-844, looked up)
Aminopeptidase N: T3 sequence (Q10730 1-844)
- Degree of hydrolysis ([5]; PepN dosage 2.5 nkat/mL in stock solution): 18%
- Degree of hydrolysis ([5]; PepN dosage 5 nkat/mL in stock solution): 18%
- Degree of hydrolysis ([5]; PepN dosage 10 nkat/mL in stock solution): 20%
- Degree of hydrolysis ([5]; PepN dosage 25 nkat/mL in stock solution): 23%
- Degree of hydrolysis ([5]; PepN dosage 50 nkat/mL in stock solution): 23%
- Degree of hydrolysis ([5]; PepN dosage 75 nkat/mL in stock solution): 24%
- Degree of hydrolysis ([5]; PepN dosage 100 nkat/mL in stock solution): 28%
- Degree of hydrolysis ([5]; PepN dosage 200 nkat/mL in stock solution): 27%

B2: TRI063 (A. oryzae): leucine aminopeptidase 2 from Aspergillus oryzae RIB40 (NCBI Reference Sequence: XP_001819545.1) (protein, listed as Aspergillus oryzae)
chain: MRSLLWASLLSGVLAGRALVSPDEFPEDIQLEDLLEGSQQLEDFAYAYPERNRVFGGKAHDDTVNYLYEELKKTGYYDVYKQPQVHLWSNADQTLKVGDEEIEAKTMTYSPSVEVTADVAVVKNLGCSEADYPSDVEGKVALIKRGECPFGDKSVLAAKAKAAASIVYNNVAGSMAGTLGAAQSDKGPYSAIVGISLEDGQKLIKLAEAGSVSVDLWVDSKQENRTTYNVVAQTKGGDPNNVVALGGHTDSVEAGPGINDDGSGIISNLVIAKALTQYSVKNAVRFLFWTAEEFGLLGSNYYVSHLNATELNKIRLYLNFDMIASPNYALMIYDGDGSAFNQSGPAGSAQIEKLFEDYYDSIDLPHIPTQFDGRSDYEAFILNGIPSGGLFTGAEGIMSEENASRWGGQAGVAYDANYHAAGDNMTNLNHEAFLINSKATAFAVATYANDLSSIPKRNTTSSLHRRARTMRPFGKRAPKTHAHVSGSGCWHSQVEA
- hydrolysis of TPAAAR [6]: no hydrolysis

— US11473073B2, “Aminopeptidases for protein hydrolyzates” (DUPONT NUTRITION BIOSCIENCES APS, priority 2015, dated 2022)
